Results: patent publication CN105968201A (UNIV NANCHANG, dated 2016)

Assays:
重组表达的PSMA胞外区蛋白 = molecular target: T1, 重组表达的PSMA胞外区蛋白 (UniProt Q04609 44-750, limits assumed); assay: indirect phage ELISA, PSMA extracellular region coated at 5 μg/mL, HRP-anti-M13 detection
T1 construct: extracellular domain; Expressed from vector pRAG2a in HEK-293 cells, purified with HisTrap FF Crude and detected with an anti-His antibody; also called 前列腺特异性膜抗原膜外区; PSMA蛋白

[1] = molecular target: T2, 前列腺特异性膜抗原 (PSMA) on LNCaP cells (UniProt Q04609 1-750, limits assumed); assay: cell ELISA and immunofluorescence on fixed LNCaP cells (PSMA-positive) against MKN45 cells (PSMA-negative), anti-M13 detection
T2 construct: whole, on cells; Cells were fixed with 4% paraformaldehyde before the assay; also called prostate specific membrane antigen; LNCaP细胞(表达PSMA)
T2 sequence (Q04609 whole entry): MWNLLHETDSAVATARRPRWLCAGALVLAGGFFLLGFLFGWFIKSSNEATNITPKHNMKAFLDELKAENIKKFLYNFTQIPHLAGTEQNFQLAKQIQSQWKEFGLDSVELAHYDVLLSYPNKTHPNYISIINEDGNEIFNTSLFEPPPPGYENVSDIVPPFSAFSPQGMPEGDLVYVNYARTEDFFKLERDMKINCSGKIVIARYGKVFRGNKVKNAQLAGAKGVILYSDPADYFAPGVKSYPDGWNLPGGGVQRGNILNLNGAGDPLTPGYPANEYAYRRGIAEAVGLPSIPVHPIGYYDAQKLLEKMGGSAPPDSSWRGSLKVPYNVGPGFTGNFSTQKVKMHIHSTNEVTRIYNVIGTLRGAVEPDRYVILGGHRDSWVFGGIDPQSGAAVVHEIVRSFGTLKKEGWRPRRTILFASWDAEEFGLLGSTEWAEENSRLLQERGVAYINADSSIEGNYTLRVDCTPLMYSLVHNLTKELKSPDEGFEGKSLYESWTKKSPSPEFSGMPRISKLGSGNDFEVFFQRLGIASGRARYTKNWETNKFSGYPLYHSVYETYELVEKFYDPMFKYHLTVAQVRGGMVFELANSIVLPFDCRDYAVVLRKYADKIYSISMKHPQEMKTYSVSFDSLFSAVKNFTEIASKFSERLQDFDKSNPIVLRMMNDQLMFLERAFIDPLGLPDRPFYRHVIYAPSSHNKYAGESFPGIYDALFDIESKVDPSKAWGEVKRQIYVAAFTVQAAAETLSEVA

T1 sequence (Q04609 44-750 limits assumed): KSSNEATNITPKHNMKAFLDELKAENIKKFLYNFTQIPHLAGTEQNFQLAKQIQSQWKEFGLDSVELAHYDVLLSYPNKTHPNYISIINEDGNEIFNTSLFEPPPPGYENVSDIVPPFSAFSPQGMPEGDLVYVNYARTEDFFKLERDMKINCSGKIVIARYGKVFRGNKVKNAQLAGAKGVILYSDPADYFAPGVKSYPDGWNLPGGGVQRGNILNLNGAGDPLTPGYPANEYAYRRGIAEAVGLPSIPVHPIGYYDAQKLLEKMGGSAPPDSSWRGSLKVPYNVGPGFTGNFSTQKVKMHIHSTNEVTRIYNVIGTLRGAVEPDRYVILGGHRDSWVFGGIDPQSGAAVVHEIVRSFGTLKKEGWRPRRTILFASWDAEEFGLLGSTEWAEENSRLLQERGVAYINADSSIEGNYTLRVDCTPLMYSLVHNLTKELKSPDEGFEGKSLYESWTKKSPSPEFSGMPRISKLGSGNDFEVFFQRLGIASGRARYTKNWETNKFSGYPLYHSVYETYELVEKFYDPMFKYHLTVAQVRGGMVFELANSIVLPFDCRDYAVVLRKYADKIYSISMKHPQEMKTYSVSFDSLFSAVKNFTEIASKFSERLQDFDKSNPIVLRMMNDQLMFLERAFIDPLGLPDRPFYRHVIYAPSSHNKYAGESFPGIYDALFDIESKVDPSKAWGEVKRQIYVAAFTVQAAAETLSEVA

B1: 抗前列腺特异性膜抗原单域重链抗体噬菌体阳性克隆 (VHH)
VHH: QVQLVESGGGLVQAGGSLRLSCAASGRFSRYAMGWFRQAPGKEREFIASISRSGGTTYYGDSVKGRFTISRDNAKNTVYLQMNTLKAEDTAVYYCAARTKGFGLRGQYHYWGQGTQVTVSS
notes: also called 针对前列腺特异性膜抗原的单域重链抗体阳性克隆; 展示本发明所述纳米抗体的噬菌体克隆
**Q.** Does B1 bind (重组表达的PSMA胞外区蛋白)?
**A.** Result: binds

**Q.** Does B1 bind [1]?
**A.** Result: binds
